IC50 and EC50 data for eight molecules are collected here from patent publication US20180037654A1 (ADURO BIOTECH HOLDINGS EUROPE B V, published 2018).

Experiment [1] deals with T1, human CTLA-4 (Y166G and Y183G) expressed on CHO-K1.hCTLA-4 cells (human, UniProt P16410 36-223). Briefly: CELISA, blockade of biotinylated hCD80/Fc binding to CHO-K1.hCTLA-4 cells. Here is the method: CHO-K1.hCTLA-4 cells were seeded in tissue culture plates and incubated at 37° C., 5% CO₂ and 95% humidity in culture medium. Once the cells were confluent culture medium was removed and cells were incubated for 1 hour with the humanized hCTL4.27 antibody variants (10 μg/ml and dilutions thereof) at 37° C., 5% CO₂ and 95% humidity. […] Cells were then washed with PBST followed by addition of Streptavidin-HRP conjugate on the cells, which was incubated for 1 hour at 37° C., 5% CO₂ and 95% humidity. […] Reactions were stopped with 0.5 M H₂SO₄ and absorbances were read at 450 and 610 nm. […] IC50 values represent the concentration at which half of the inhibition is observed.

Experiment [2] concerns the target T1, human CTLA-4 (Y166G and Y183G) …. Briefly: CELISA on CHO-K1.hCTLA-4 cells. The method, then: Binding of the humanized antibodies to hCTLA-4 was studied in CELISA format. CHO-K1.hCTLA-4 cells were seeded in culture medium (DMEM-F12 (Gibco) with 10% Fetal Bovine Serum (Hyclone) and Pen/Strep (Gibco)) in tissue culture plates and cultured at 37° C., 5% CO₂ and 95% humidity until they were confluent. Subsequently, culture medium was removed and cells were incubated for 1 hour at 37° C., 5% CO₂ and 95% humidity with purified hCTLA-4 antibodies (10 μg/ml and dilutions thereof). Next, cells were washed with PBS/0.05% Tween (PBST) and incubated for 1 hour at 37° C., 5% CO₂ and 95% humidity with goat-anti-human IgG-HRP (Southern Biotechnology) or goat-anti-mouse IgG-HRP (Southern Biotechnology). Subsequently, cells were washed 3 times with PBST and anti-hCTLA-4 immunoreactivity was visualized with TMB Stabilized Chromagen (Invitrogen). Reactions were stopped with 0.5 M H₂SO₄ and absorbances were read at 450 and 610 nm.

T1 sequence (P16410 36-223 Y201G/Y218G limits assumed): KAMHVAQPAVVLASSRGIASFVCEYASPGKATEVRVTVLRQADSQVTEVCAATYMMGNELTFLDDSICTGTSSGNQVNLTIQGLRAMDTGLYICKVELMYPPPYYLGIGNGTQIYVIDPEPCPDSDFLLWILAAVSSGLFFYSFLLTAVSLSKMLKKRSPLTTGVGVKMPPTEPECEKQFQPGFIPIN

B1: hCTLA4.27H1L1 (antibody, human IgG4 S228P, kappa, V domains shown)
VH: EVQLLQSGAVLARPGTSVKISCKASGYSFTTYWMNWVKQRPGQGLEWIGMIHPSDSETSLNQAFKDKAKLTAATSASIAYLEFSSLTNEDSAVYYCARMGRRNPYYFDYWGQGTLVTVSS
VL: DIQMTQSPSSLSASVGDRVTITCRPSENLYTNLAWYQQKPGKAPKLLLYGATNLADGVPSRFSGSGSGTDYTLTISSLQPEDFATYYCQHLWGTPFTFGQGTKLEIKR
notes: Humanized, human IgG4 (S228P) kappa; H1 read as hCTLA4.27VH1, L1 as hCTLA4.27VL1
B1 registered an IC50 in experiment [1] of 2550 pM. The same molecule displayed an EC50 in experiment [2] of 37 pM.

B2: hCTLA4.27H1L3 (antibody, human IgG4 S228P, kappa, V domains shown)
VH: EVQLLQSGAVLARPGTSVKISCKASGYSFTTYWMNWVKQRPGQGLEWIGMIHPSDSETSLNQAFKDKAKLTAATSASIAYLEFSSLTNEDSAVYYCARMGRRNPYYFDYWGQGTLVTVSS
VL: DIQMTQSPSSLSASVGDTVTITCRPSENLYTNLAWYQQKPGKAPKLLLYGATNLADGVPSRFSGSGSGTDYTLTISSLQSEDFATYYCQHLWGTPFTFGQGTKLEIKR
notes: Humanized, human IgG4 (S228P) kappa; H1 read as hCTLA4.27VH1, L3 as hCTLA4.27VL3
As to B2, the IC50 in experiment [1] worked out at 3130 pM. The same molecule had an EC50 in experiment [2] of 45 pM.

B3: hCTLA4.27H5L3 (antibody, human IgG4 S228P, kappa, V domains shown)
VH: EVQLLQAGAVLARPGTSVKISCKASGYSFTTYWMNWVKQRPGKGLEWIGMIHPSDSETSLNQAFKDKAKLTAATSASIAYLEFSSLTNEDSAVYYCARIGRRNPYYFDYWGQGTLVTVSS
VL: DIQMTQSPSSLSASVGDTVTITCRPSENLYTNLAWYQQKPGKAPKLLLYGATNLADGVPSRFSGSGSGTDYTLTISSLQSEDFATYYCQHLWGTPFTFGQGTKLEIKR
notes: Humanized, human IgG4 (S228P) kappa; H5 read as hCTLA4.27VH5, L3 as hCTLA4.27VL3
As for B3, in experiment [1], the IC50 is 2570 pM. The same molecule displayed an EC50 in experiment [2] of 42 pM.

B4: hCTLA4.27H5L1 (antibody, human IgG4 S228P, kappa, V domains shown)
VH: EVQLLQAGAVLARPGTSVKISCKASGYSFTTYWMNWVKQRPGKGLEWIGMIHPSDSETSLNQAFKDKAKLTAATSASIAYLEFSSLTNEDSAVYYCARIGRRNPYYFDYWGQGTLVTVSS
VL: DIQMTQSPSSLSASVGDRVTITCRPSENLYTNLAWYQQKPGKAPKLLLYGATNLADGVPSRFSGSGSGTDYTLTISSLQPEDFATYYCQHLWGTPFTFGQGTKLEIKR
notes: Humanized, human IgG4 (S228P) kappa; H5 read as hCTLA4.27VH5, L1 as hCTLA4.27VL1
Take B4: the IC50 in experiment [1] came to 5390 pM. Moreover, a half-maximal response in experiment [2] (EC50) required 29 pM.

B5: hCTLA4.27H5L5 (antibody, human IgG4 S228P, kappa, V domains shown)
VH: EVQLLQAGAVLARPGTSVKISCKASGYSFTTYWMNWVKQRPGKGLEWIGMIHPSDSETSLNQAFKDKAKLTAATSASIAYLEFSSLTNEDSAVYYCARIGRRNPYYFDYWGQGTLVTVSS
VL: DIQMTQAPSSLSASVGDRVTITCRPSENLYTNLAWYQQKPGKAPKLLLYGATNLADGVPSRFSGSGSGTDYTLTISSLQAEDFATYYCQHLWGTPFTFGGGTKLEIKR
notes: Humanized, human IgG4 (S228P) kappa; H5 read as hCTLA4.27VH5, L5 as hCTLA4.27VL5
With B5, the IC50 in experiment [1] was 1910 pM. The molecule further registered an EC50 in experiment [2] of 35 pM.

B6: hCTLA4.27H1L2 (antibody, human IgG4 S228P, kappa, V domains shown)
VH: EVQLLQSGAVLARPGTSVKISCKASGYSFTTYWMNWVKQRPGQGLEWIGMIHPSDSETSLNQAFKDKAKLTAATSASIAYLEFSSLTNEDSAVYYCARMGRRNPYYFDYWGQGTLVTVSS
VL: DIQMTQSPSSLSASVGDRVTITCRPSENLYTNLAWYQQKPGKAPKLLIYGATNLADGVPSRFSGSGSGTEFSLSISSLQPEDFATYYCQHLWGTPFTFGGGTKVEIKR
notes: Humanized, human IgG4 (S228P) kappa; H1 read as hCTLA4.27VH1, L2 as hCTLA4.27VL2
In experiment [1], B6 registered an IC50 of 2720 pM. This molecule showed an EC50 in experiment [2] of 40 pM.

B7: hCTLA4.27H1L5 (antibody, human IgG4 S228P, kappa, V domains shown)
VH: EVQLLQSGAVLARPGTSVKISCKASGYSFTTYWMNWVKQRPGQGLEWIGMIHPSDSETSLNQAFKDKAKLTAATSASIAYLEFSSLTNEDSAVYYCARMGRRNPYYFDYWGQGTLVTVSS
VL: DIQMTQAPSSLSASVGDRVTITCRPSENLYTNLAWYQQKPGKAPKLLLYGATNLADGVPSRFSGSGSGTDYTLTISSLQAEDFATYYCQHLWGTPFTFGGGTKLEIKR
notes: Humanized, human IgG4 (S228P) kappa; H1 read as hCTLA4.27VH1, L5 as hCTLA4.27VL5
Regarding B7, the IC50 in experiment [1] was 3440 pM. The EC50 in experiment [2] came to 46 pM.

B8: hCTLA4.27H5L2 (antibody, human IgG4 S228P, kappa, V domains shown)
VH: EVQLLQAGAVLARPGTSVKISCKASGYSFTTYWMNWVKQRPGKGLEWIGMIHPSDSETSLNQAFKDKAKLTAATSASIAYLEFSSLTNEDSAVYYCARIGRRNPYYFDYWGQGTLVTVSS
VL: DIQMTQSPSSLSASVGDRVTITCRPSENLYTNLAWYQQKPGKAPKLLIYGATNLADGVPSRFSGSGSGTEFSLSISSLQPEDFATYYCQHLWGTPFTFGGGTKVEIKR
notes: Humanized, human IgG4 (S228P) kappa; H5 read as hCTLA4.27VH5, L2 as hCTLA4.27VL2
Take B8: in experiment [1], the IC50 was determined as 10300 pM. This molecule registered a concentration giving a half-maximal response (EC50) in experiment [2] of 42 pM.
